A protein production outcome set (Wang et al. 2014)

Assay: label from the status in PepcDB records

## MTSPSPDQVIRQEILALSAYHVPPAKDMVKLDAMENPYRLPPFLCEEISRIAADTSINRYPDPHAAALKEVLSTTLSVPAGMEIMLGNGSDEIIQIIMLAAAKPEAKLLTIEPGFAMFKMIATFANMQYIGIPLKPDFSLDIDRMLAAIERHQPSVIFLAYPNNPSGNLFDTSALEKIIEISPGLVVIDEAYHPFAGKSFIGRLADYPNLLVMRTLSKLGLAGLRLGLLAGRPEWLSHLEKLRLPYNVNVITQLVATKIMQHYDVLQQQADAIRQTRTRLRTFLENLNGIEVFPSNANFILFRLDGASQIFRLLQQHGILVKNLDNSHPLLKNCLRVTVGTPEENDRFCNTLQDLIAGN
  protein production: failed

## MTSQVANPPVQSIRLLFSALLLVMLLSALDQTIVSTALPTIVGELGGLDKLSWVVTAYILSSTIAVPLYGKFGDLFGRKIVLQVAIGLFLVGSALCGLAQNMTQLVLMRGLQGLGGGGLMVISMAAVADVIPPANRGRYQGLFGGVFGLATVIGPLIGGFLVQHASWRWIFYINLPLGLFALLVIGAVFHSSNKRSQHQIDWLGAIYLSMALLCIILFTSEGGSVHAWNDPQLWCILAFGIVGIIGFIYEERMAAEPIIPLALFRNRSFLLCSLIGFVIGMSLFGSVTFLPLYLQVVKEATPTEAGLQLIPLMGGLLLTSIISGRIISRTGKYRLFPILGTLLGVTGMVLLTRITIHSPLWQLYLFTGVLGAGLGLVMQVLVLAVQNAMPAQMYGVATSGVTLFRSIGGSIGVALFGAVFTHVLQSNLQQLLPEGAVLPPGMNPVAVQHLPADIRLDYLDAFGAAIHAAFLMAAGIMAVAFVLSWLLKEAPLKTATH
  protein production: failed

## MTSSSPPAIPADARRQHAERTTLVSAAVNCALSAGQIAAGLWSHSQGLVADGLHTLSDLIADGIVFIANRNSHKGPDEDHQYGHARYENAASLGLGLLLMAAGAGMIWSALASLSAPHGAAPVHGLALWVALAALAAKEGLFRYMLAVARRIGSRMLVANAWHARSDAVSSLVAAVGVAGNLMGFRWLDPVAACVVGAMIGRVGIRFGWEALNDLMDRALPPAQVQAIRASLAATPGVINVHDLRTRVTGDQALVDAHIEVDPRVSVSEGHAIAVRARANVLAAHTAMAVLDVQLHVDPRERVYTDPLPLPDRDALCAVLAQALPPGTPLDARHCLLHYVEGGVEVDLILPPSLADHAAPVAETVRARWHGRVRLRALTAASGATARGPVRP
  protein production: failed

## MTSTASSTDIRQGQAADEQWPSWQQRLRRFGYTAPPRTDVRDRLVPPFSEPSPRLWAAIGLRQEVADRVTRWSAWGGPLLVTLLAGLLRFWNLGSPKAVIFDETYYAKDAWALIHNGYEANWAKDANDLILQGNGHVAIPTDPAYVVHPPVGKYVIGLGEWLFGFTPFGWRFMTALLGTLSVLLLCRIGRRLFRSTFLGCLAGALMAVDGLHFVMSRTSLLDGVLMFFVLAAFGCLVVDRDRARARLAAALPADADGVVRPDAHTAETTRLGPRPWRWLAGLMLGLALGTKWNALYVMAAFCVMAVLWDVGSRRVAGARRPYAAVLRRDTGITFLATVPVAVATYLVSWTGWILSPANGSGGYFRNWAATDGKGGHWTWLPDWLRSLWHYEHEVYEFHVGLSSPHQYQSNPWSWLVAGRPVSYFYESPSPGKDGCPADAGEKCAREVLALGTPLLWWAACFAVLYVLWRWLFRRDWRAGAIACGIAAGWLPWMMYQERTIFYFYAVVFVPFLCLAVAMMIGAILGPPGSGERRRVVGAAGAGVLVLLIAWNFIYFWPLYTGTAIPIDDWRSRMWLDTWV
  protein production: failed

## MTTALRQPTLSSQCLAEFLGTALLIFFGTGCVAALKVAGASFGLWEISIIWGVGVSMAIYLTAGISGAHLNPAVSIALTLFAGFDKRKLPFYMLAQVCGAFCGAALVYTLYSNLFFDFEQAHAMLRGSEGSLELASVFSTYPHPSLSTSQAFLVEVVITAILMAVIMALTDDNNGLPRGAMAPLLIGLLIAVIGSAMGPLTGFAMNPARDFGPKLMTFLAGWGEIAFTGGRDIPYFLVPVFAPILGACLGAASYRGLIARNLPMAPAATPETNDIRQGDTQAN
  protein production: failed

## MTTASGPGDLPAGSPVSSLHEALDQCMTALDLFLTNQFSEALSYLKPRTKESMYHSLTYATILEMQAMMTFDPQDILLAGNMMKEAQSLCQRHRRKSSMTDSFSNLVHRPTIDQFTEEEIHAEVCYAECLLQRAALTFLQDENMVSFIKGGIKVRNSYQTYKELDSLVQSSQYSKGESHRHFEGGVKLGVGAFNLTLSMLPTRILRLLEFVGFSGNKDYGLLQLEEGATGHSFRAVLCVMLLLCYHTFLTFVLGTGNVNIEEAEKLLKPYLNRYPKGAIFLFFAGRIEAIKGNIDAAVRRFEECCEAQQHWKQFHHMCYWELMWCFTYKGQWKMAYFYADLLSKENSWSKATYIYMKAAYLSMFGKEDYKPFGDNEVELFRAVPGLKLKIAGKSLPTEKFAIRKSRRYLSPNPISLPIPALEMMYIWNGYAVIGKQPTLTDGMLEVITKAEEMLAMGPENEYSADDDCLVKLLKGLCLKYLGRIQEAEENFRSISANEKKIKYDHYLIPNALLELALLFMEQGRNEEAIKLLESAKQNYKNYSMESRTHLRIQAATLQARSSLEDGNRSLVSSVSL
  protein production: failed

## MTTATAGLAVELKQSTAQAHEKAEHSTFMSDLLKGRLGVAEFTRLQEQAWLFYTALEQAVDAVRASGFAESLLDPALNRAEVLARDLDKLNGSSEWRSRITASPAVIDYVNRLEEIRDNVDGPALVAHHYVRYLGDLSGGQVIARMMQRHYGVDPEALGFYHFEGIAKLKVYKDEYREKLNNLELSDEQREHLLKEATDAFVFNHQVFADLGKGL
  protein production: not failed

## MTTDRPLSPPLDHAWIAARIPHSGAMCLLDQVVTWDDTHIRCTTTSHRAPDNPLRAHGRLAAVCGIEYAAQAMAVHGAILGNAQDRPRAGFLASVRSVEAHVERLDTIEAPLTIEAERIGGDGNNVLYRFSVRCGERVLLTGRAAVVLDAAGLGLPDAGALAKANAQAR
  protein production: failed

## MTTEVKQSPRERLLEAAAALTYRDGVGIGVEALCKAAGVSKRSMYQLFESKDELLAASLKERSAAFVAKALPPADDGRSPRERILYVFERVESQAGAPDFQGCRYLAVQIELKDQAHPASRVAYQIKADLMAFFRSEAERGGASDPDLLARQLILVFDGASARAGIGADNLTGLIVPTLTTLLDAADMH
  protein production: not failed

## MTTFSHSSTTPSVSVTTASGNNQSQLVATPVPDEQRISFWPQHFGLIPQWVTLEPRVFGWMDRLCEDYCGGIWNLYTLNNGGAFIAPEPDEDDGETWILFNAMNGNRAEMSPEAAGIAACLMTYSHHACRTECYAMTVHYYRLRDYALQHPECSAIMRIID
  protein production: failed

## MTTGDGRSRLLAAATRLIRTQGFAATSVEAICREAGVTKGAFFHHFPSKEALGVAAAEAWSDVTGRLFAEAPYHRPADPLDRVLAYIDFRRALVAGEIADYTCLVGTLVQEAYGSDPIRAACGASILGHAGTLEADMAAAAEARGVADVDPASLARHTQAVLQGAFILAKAGGGAAAVEEALDHLKRYLRLLFANPGASGA
  protein production: failed

## MTTHDRVRLQLQALEALLREHQHWRNDEPQPHQFNSTQPFFMDTMEPLEWLQWGLIPRMHDLLNNNQPLPGAFAVAPYYEMALATDHPQRALILAELEKLDALFADDASLEHHHHHH
  protein production: failed

## MTTIALLGNPNVGKTTLFNALTGSNQHVGNWPGVTVDKKEGFFNSNKIVDLPGIYALDTFSNEEKVSKKFLESGDVDLILNIVDASNLDRNLYLTMQLKDFKKPIVLLLNMNDIAEKKGIKIDPKKLEKAFNLKVIPITASKKEGLDEVKEFLNKGNFEKYLDKNTYSFKDEAHTYKFIEDKLSDCFNRSGNSSTTLTDKLDKVFLNPWLAYPLFIALMYFVFQFTFSWVGQPISDALDGFLGDTFMPYLSDLLSGTAPWFQSLLVDGIVAGVGGIIVLLPIILALFLCIAILEDSGYMARVAFLMDKFMRKIGLSGKAFLPMITGFGCTVPAIMSARTLESEKDRKLTALLAPFMSCNARLPVYVIFAGLFFPDNASMVVASLYILGILVAFILGLVFKNTLFKKDEEPFIIELPEYKVPEVRSVLAQLWDKSKSFLKKAGTIIFAMSVVIWFLQSFNFTGMVEDITHSFLYNIGSFIAPIFAPLGFGDWQASVSLLTGLMAKETIISTMEVIYKGDLTHMLPQFFTALSSYSFMVFVLLYTPCISVVGVMKKEYGGKFTVLSVIFQFLVAWISAFIIYHIGLLIF
  protein production: failed

## MTTIYLVRHGQASFGKANYDELSENGQAQATILGQYLKEILKEQPYVIAGTMKRHLQTAQGALKECFPDTHIYTHAGWNEFNHQQVFANYEPRFKQPELLKQDVAKEQNPRAYLAKIFESAISRWTDGEFHHEYEESWPKFKQRVEIALKMLCDELAQTKPRYAVVFTSGGVISVIAGKILELNPNRTFALNWAITNTSLTTLRLVGNEPQLLSLNEHHFIKVVNPALLTWI
  protein production: failed
